Source: publication PMC5016095 (2016)

Tests used:
[1] = molecular target: α-synuclein (oligomeric) (Homo sapiens, UniProt P37840, oligomeric, pseudo-wildtype tryptophan mutant); assay: fluorescence spectroscopy
[2] = molecular target: α-synuclein S129E (Homo sapiens, UniProt P37840); assay: fluorescence spectroscopy

Kd [1]: ~5 µM
Kd [2]: ~5 µM
B1: TOM20 C-terminal cytosolic fragment (protein)
chain: DRKRRSDPNFKNRLRERRKKQKLAKERAGLSKLPDLKDAEAVQKFFLEEIQLGEELLAQGDYEKGVDHLTNAIAVCGQPQQLLQVLQQTLPPPVFQMLLTKLPTISQRIVSAQSLAEDDVE
